We go through 1 molecule from patent US20230203199A1 (published 2023).

This experiment has as its target T1, hCD20 on transfected Expi293 cells (human, UniProt P11836 1-297).
T1 construct: whole, on cells
T1 sequence (looked up): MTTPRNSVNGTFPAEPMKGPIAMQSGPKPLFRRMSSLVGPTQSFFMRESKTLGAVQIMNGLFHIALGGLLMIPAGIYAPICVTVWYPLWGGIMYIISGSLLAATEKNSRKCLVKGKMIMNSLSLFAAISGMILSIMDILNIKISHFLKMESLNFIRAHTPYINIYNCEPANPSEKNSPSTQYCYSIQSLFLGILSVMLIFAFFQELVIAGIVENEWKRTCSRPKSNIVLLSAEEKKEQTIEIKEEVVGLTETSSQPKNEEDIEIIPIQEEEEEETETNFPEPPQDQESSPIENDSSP
The experiment is described as follows: flow cytometry on Expi293 cells transfected with hCD20, anti-human Fc PE detection. Background: Flow cytometry measures light scatter and fluorescence of single cells or particles in a stream.

Procedure: Expi293 cells transfected hCD20 were seeded in 96 U-bottom plate at 1×10e5 cells/well. The TASER antibody or human IgG1 isotype control were added at final concentration 1-10 μg/ml and incubated on ice or at 4° C. for 20-30 minutes. […] Stained cells were analyzed by flow cytometry and the binding ability were presented as PE positive population among total live cells.

B1: MX846 (bispecific antibody)
chain 1: not shown
chain 2: QAVVTQEPSLTVSPGGTVTLTCGSSTGAVTTSNYANWVQEKPGQAFRGLIGGTNKRAPGTPARFSGSLLGGKAALTLSGAQPEDEAEYYCALWYSNLWVFGGGTKLTVLGGSGGDIVMTQTPLSLPVTPGEPASISCRSSKSLLHSNGITYLYWYLQKPGQSPQLLIYQMSNLVSGVPDRFSGSGSGTDFTLKISRVEAEDVGVYYCAQNLELPYTFGGGTKVEIKGSGGSAGSGSGGGGSASGSGQVQLVQSGAEVKKPGSSVKVSCKASGYAFSYSWINWVRQAPGQGLEWMGRIFPGDGDTDYNGKFKGRVTITADKSTSTAYMELSSLRSEDTAVYYCARNVFDGYWLVYWGQGTLVTVSSGGSGGEVQLLESGGGLVQPGGSLRLSCAASGFTFSTYAMNWVRQAPGKGLEWVSRIRSKYNNYATYYADSVKGRFTISRDDSKNTLYLQMNSLRAEDTAVYYCVRHGNFGNSYVSWFAYWGQGTLVTVSSASGGSGDKTHTCPPCPAPEAAGGPSVFLFPPKPKDTLMISRTPEVTCVVVDVSHEDPEVKFNWYVDGVEVHNAKTKPREEQYNSTYRVVSVLTVLHQDWLNGKEYKCKVSNKALAAPIEKTISKAKGQPREPQVCTLPPSRDELTKNQVSLSCAVKGFYPSDIAVEWESNGQPENNYKTTPPVLDSDGSFFLVSKLTVDKSRWQQGNVFSCSVMHEALHNHYTQKSLSLSPG
Take B1: the binding result is listed as “binds”.
